In paper PMC4897736, “Structural and biochemical characterization of the cell fate determining nucleotidyltransferase fold protein MAB21L1” (Scientific Reports, 2016):

How the values were obtained:
MAB21L1 [1] = target: T1, MAB21L1 (Homo sapiens, UniProt Q13394); test: ITC, thermal shift; type: binding
T1 construct: full length
T1 sequence (Q13394 1-359): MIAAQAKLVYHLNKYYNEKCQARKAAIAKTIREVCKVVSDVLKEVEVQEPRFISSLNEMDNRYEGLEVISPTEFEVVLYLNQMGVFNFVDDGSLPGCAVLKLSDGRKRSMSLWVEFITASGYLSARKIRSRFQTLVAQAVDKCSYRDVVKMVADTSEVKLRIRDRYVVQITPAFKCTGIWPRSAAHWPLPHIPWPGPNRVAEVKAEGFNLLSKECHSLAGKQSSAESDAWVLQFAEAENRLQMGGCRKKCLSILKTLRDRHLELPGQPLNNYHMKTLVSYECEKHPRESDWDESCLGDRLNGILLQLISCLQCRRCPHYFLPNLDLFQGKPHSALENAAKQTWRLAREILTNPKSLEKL

MAB21L1 [2] = target: T1, MAB21L1; test: co-crystal structure ([…] Å), ITC, thermal shift; type: binding
MAB21L1 [3] = target: T2, MAB21L1 (Homo sapiens, UniProt Q13394 1-359); test: EMSA; 0.5 uM nucleic acid; EMSA: 20 mM Tris pH 8.0, 200 mM NaCl, 30 min on ice, 1% agarose gel, Gel-Red stain; details: protein: recombinant; tags: His-MBP tag removed by TEV; label: none (Gel-Red stain); single strand
T2 sequence: T1 sequence (Q13394 1-359)

MAB21L1 [4] = target: T2, MAB21L1; test: EMSA; 1 uM nucleic acid; EMSA: 20 mM Tris pH 8.0, 200 mM NaCl, 30 min on ice, 1% agarose gel, Gel-Red stain; details: protein: recombinant; tags: His-MBP tag removed by TEV; label: none (Gel-Red stain); blunt

Nc1ncnc2c1ncn2[C@@H]1O[C@H](COP(=O)(O)OP(=O)(O)O)[C@@H](O)[C@H]1O [ADP]
Kd (MAB21L1 [1]): 3100 nM

Nc1ncnc2c1ncn2[C@@H]1O[C@H](COP(=O)(O)OP(=O)(O)OP(=O)(O)O)[C@@H](O)[C@H]1O [ATP]
Kd (MAB21L1 [1]): 340 nM

Nc1ccn([C@@H]2O[C@H](COP(=O)(O)OP(=O)(O)OP(=O)(O)O)[C@@H](O)[C@H]2O)c(=O)n1 [CTP]
Kd (MAB21L1 [2]): 410 nM

GGATACGTAACAACGCTTATGCATCGCCCCGCTACATCCCTGAGCTGAC (ssDNA) [50mer ssDNA]
apparent K (half saturation) (MAB21L1 [3]): 6.7 µM

B1: 50mer dsDNA (dsDNA)
DNA 1: GGATACGTAACAACGCTTATGCATCGCCCCGCTACATCCCTGAGCTGAC
DNA 2: GTCAGCTCAGGGATGTAGCGGGGCGATGCATAAGCGTTGTTACGTATCC
apparent K (half saturation) (MAB21L1 [4]): 6 µM

GGAUACGUAACAACGCUUAUGCAUCGCCCCGCUACAUCCCUGAGCUGAC (ssRNA) [50mer ssRNA]
apparent K (half saturation) (MAB21L1 [3]): 3.3 µM

B2: 50mer dsRNA (dsRNA)
RNA 1: GGAUACGUAACAACGCUUAUGCAUCGCCCCGCUACAUCCCUGAGCUGAC
RNA 2: GUCAGCUCAGGGAUGUAGCGGGGCGAUGCAUAAGCGUUGUUACGUAUCC
apparent K (half saturation) (MAB21L1 [4]): 5 µM
